{"source": "paper PMC6838674", "about": "“Apelin-36-[L28A] and Apelin-36-[L28C(30kDa-PEG)] peptides that improve diet induced obesity are G protein biased ligands at the apelin receptor” (Peptides, 2019)", "biological_target": "T1, apelin receptor (Rattus norvegicus), Q9JHG3", "T1 chain": "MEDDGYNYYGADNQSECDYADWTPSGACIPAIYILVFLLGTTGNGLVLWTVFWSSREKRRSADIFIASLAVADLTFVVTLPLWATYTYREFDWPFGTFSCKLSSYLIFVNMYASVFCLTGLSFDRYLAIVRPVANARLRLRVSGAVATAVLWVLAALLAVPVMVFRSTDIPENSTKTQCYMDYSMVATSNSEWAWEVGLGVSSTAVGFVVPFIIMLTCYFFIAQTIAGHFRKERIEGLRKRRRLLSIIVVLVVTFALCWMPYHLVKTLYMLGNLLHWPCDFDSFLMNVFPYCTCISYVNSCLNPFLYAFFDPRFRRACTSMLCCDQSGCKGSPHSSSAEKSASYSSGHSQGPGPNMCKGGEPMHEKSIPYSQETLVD", "test": "radioligand competition binding, heart homogenate", "conditions": "modification not given"}
{"binder": "LVQPRGSRNGPGPWQGGRRKFRRQRPRCSHKGPMPF", "note": "[apelin-36-[L28C(30kDa-PEG)]]", "values": [{"measurement": "Ki", "value": 8.71, "unit": "nM"}]}
